# Assays:
# HTRA1 (cat) = molecular target: T1, HTRA1 (cat) (Homo sapiens, UniProt Q92743); test: HTRA1 (cat) inhibitory activity using peptide substrate H2-Opt (Example 3-1); type: biochemical; settings: method of (3-1); peptide 1.875 to 1,000 nM
# T1 construct: The protease domain (158Gly to 373Lys), except for the N-terminal domain and the PDZ domain, of human HTRA1 (Q92743); made in house; host or cells: E. coli BL21 (DE3)
# Description: The protease domain (158Gly to 373Lys), except for the N-terminal domain and the PDZ domain, of human HTRA1 (Q92743) was used as HTRA1 (cat) to construct a HTRA1 (cat) expression vector. The desired DNA fragment was amplified by PCR ((94° C. for 15 sec, 60° C. for 30 sec, and 68° C. for 45 sec)×30 cycles) with a human HTRA1-inserted plasmid (GeneCopoeia, Inc.; GC-M0558) as a template using the following primers and KOD-plus-(Toyobo Co., Ltd.).
# A substrate peptide H2-Opt (Mca-IRRVSYSFK(Dnp)K) (Peptide Institute, Inc.: SEQ ID NO: 54, FIG. 8) was dissolved at 10 mM in DMSO, diluted with an assay buffer (50 mM borate and 150 mM NaCl, pH 8.5), and used at a final concentration of 10 μM. HTRA1 (HTRA1 (cat) or HTRA1 (full)) and each HTRA1-inhibiting peptide diluted with an assay buffer were mixed at 25 μL each and reacted at 37° C. for 20 minutes. Then, 50 μL of the substrate diluted with an assay buffer was added thereto. A fluorescent signal (excitation at 328 nm/emission at 393 nm) was measured using Enspire (PerkinElmer, Inc.). […]
# The substrate peptide decomposition rate of the HTRA1-inhibiting peptide at each concentration was calculated. When the decomposition rate at an inhibitor concentration of 0 nM was defined as 100%, the HTRA1 (cat) and HTRA1 (full) inhibitory activity of each HTRA1-inhibiting peptide was evaluated (FIGS. 2 and 3).
# ARPE-19 cells = test: VEGF mRNA induction test using human retinal pigment epithelial cell ARPE-19; type: cell-based; settings: H2O2 500 μM, normal human serum complement 25%, HTRA1 1 μM, peptide 1 μM, 4 hours
# Description: ARPE-19 cells were cultured until confluent in 12 mm Transwell with 0.4 μm Pore Polyester Membrane Insert, Sterile (Corning Inc.) under conditions of 37° C. and 5% CO2 using a DMEM/F-12 medium (Wako Pure Chemical Industries, Ltd.) containing 10% fetal bovine serum (FBS) and penicillin-streptomycin (Thermo Fisher Scientific Inc.). Then, the cells were cultured in FBS-free DMEM/F-12 for 5 days. H2O2 (final concentration: 500 μM) was added to the upper and lower layers of the chamber, and normal human serum complement (Quidel Corp.) (final concentration: 25%) was added to the upper layer of the chamber. […] Four hours later, the culture supernatant was removed, and the cells were washed with PBS. Then, mRNA was extracted using SuperPrep™ Cell Lysis & RT Kit for qPCR (Toyobo Co., Ltd.) and subjected to reverse transcription reaction. The mRNA level of VEGF was quantitatively analyzed by TaqMan Gene Expression Assays (Hs000900055_m1 and Hs02786624_g1; Thermo Fisher Scientific Inc.) using 7900HT Fast Real-Time PCR System (Applied Biosystems, Inc.). GAPDH was used in the correction of the mRNA level.
# [1] = system: retinal damage induced by light exposure; test: Rat model of retinal damage induced by light exposure; type: in vivo
# Description: Rat models of retinal damage induced by light exposure are models that induce the cell death of retinal photoreceptor cells by light exposure and are universally used as model animals of retinal degeneration (Daniel T. Organisciak et al., (1996) Invest Ophthalmol Vis Sci. Vol. 37 (No. 11): p. 2243-2257). A 0.5% (W/V) tropicamide-0.5% phenylephrine hydrochloride ophthalmic solution was ocularly instilled under adaptation to darkness to rats adapted to darkness for 72 hours. Then, the rats were exposed to white light of 5500 Lux for 3 hours. The rats thus exposed were adapted again to darkness for about 24 hours and then raised for 2 days under light-dark conditions of ordinary raising. After euthanasia, the eyeballs were excised and fixed by dipping in a 3.7% (W/V) formaldehyde-0.5 to 1% (W/V) methanol-0.2% (W/V) picric acid fixative for 24 hours or longer. After paraffin embedding, thin sliced sections were prepared. The sections were stained with hematoxylin-eosin, and a nucleus count in an outer nuclear layer at the cross-section of the retina was determined to evaluate retinal damage. […] Immediately before light exposure of rats, 5 micro L of HTRA1-inhibiting peptide […] having a concentration of 0.04 mg/mL or 0.2 mg/mL was intravitreally administered under anesthesia. n=4 for a normal saline administration group, and n=5 for the other groups. […] The retinal protective effects of three HTRA1-inhibiting peptides prepared in Example 6 were evaluated using the rat models of retinal damage induced by light exposure, constructed in Example (5-1). The operation followed Example 5. n=6 for all groups.
# [2] = system: human umbilical vein endothelial cells (HUVEC); test: HUVEC migration test; type: cell-based; settings: 300 nM peptide in EGM growth medium; 2 hours
# Description: HUVEC (Kurabo Industries Ltd.) was cultured for 18 hours under conditions of 37° C. and 5% CO2 in a medium (0.1% BSA-containing serum-free EGM) in which EBM™-2 basal medium (Lonza Walkersville, Inc.) containing 0.1% BSA was supplemented with EGM™-2 SingleQuots™ additive factor set except for serum and VEGF. Then, the cells were adjusted to 4×10^5 cells/mL with 0.1% BSA-containing serum-free EGM. 4×10^5 cells/mL of the HUVEC suspension was added at 50 μL/well to the upper layer of a chamber of Corning FluoroBlok HTS 96 Well Multiwell Permeable Support System with 3.0 μm High Density PET Membrane (Corning Inc.) having a gelatin-coated membrane. Then, each sample described below (medium 1, 2 or 3) was added at 210 μL/well to the lower layer of the chamber (n=3). […]
# FluoroBlok HTS 96 Well Multiwell Support System supplemented with the cells and the sample was incubated for 2 hours under conditions of 37° C. and 5% CO2. […] The fluorescence intensity (excitation wavelength/fluorescence wavelength: 485 nm/535 nm) of each well was measured using a plate reader (ARVO-MX, PerkinElmer, Inc.), and the migrated cells were counted for each well according to the following expression.
# Migrated cells=Mean fluorescence intensity of wells containing HUVEC (n=3)−Mean fluorescence intensity of blank wells (n=3).
# RPE cells = test: Rabbit retinal damage model by loading with high-fat diet containing hydroquinone (HFD-HQ); type: in vivo; settings: HFD-HQ-loaded 3-year-old rabbits; 50 μL of 40 mg/mL intravitreally after 2 months of feeding; evaluated after 4 months
# Text: Retinal damage models prepared using high-fat diet (HFD) and hydroquinone (HQ) are models in which oxidative stress is induced by a pro-oxidant to cause retinal damage. These models have been reported only for mice (Diego G. Espinosa-Heidmann et al., (2006) Invest Ophthalmol Vis Sci., Vol. 47 (No. 2): p. 729-737). Accordingly, 3-year-old JW rabbits were fed for 4 months with RC4 (Oriental Yeast Co., Ltd.) diet containing 1.5% (W/V) coconut oil-0.25% (W/V) cholesterol-1.5% (W/V) peanut oil-2.4% (W/V) hydroquinone (HFD-HQ) to construct rabbit retinal damage models. After euthanasia, the eyeballs were excised, and the anterior segment of the eye was removed by an external incision of about 5 mm from the corneal limbus. The vitreous body was further separated. Then, retina-choroid-sclera was fixed by dipping in 4% (W/V) paraformaldehyde fixative for 24 hours or longer. […] The stained choroid was observed under a fluorescence microscope (BZ-9000; Keyence Corp.). The area of stained retinal pigment epithelial (RPE) cells was determined to evaluate RPE cell damage.
# The retinal protective effect of the HTRA1-inhibiting peptide H308 prepared in Example 1 was evaluated using the rabbit models. […]
# After 4 months from the start of feeding, RPE cell hypertrophy in the model animals was evaluated. […]
# T1 sequence (Q92743 158-373): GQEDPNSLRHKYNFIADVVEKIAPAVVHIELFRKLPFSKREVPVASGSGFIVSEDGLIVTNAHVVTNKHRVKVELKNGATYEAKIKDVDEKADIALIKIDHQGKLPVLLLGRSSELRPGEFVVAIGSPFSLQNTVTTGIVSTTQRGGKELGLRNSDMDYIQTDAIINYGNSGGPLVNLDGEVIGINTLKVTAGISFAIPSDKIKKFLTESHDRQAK
molecule,measurement,setting,value
"wild-type SPINK2: human serine protease inhibitor Kazal-type 2, control, amino acid sequence SEQ ID NO: 1 (FIG. 13) (protein, listed as Homo sapiens) DPQFGLFSKYRTPNCSQYRLPGCPRHFNPVCGSDMSTYANECTLCMKIREGGHNIKIIRNGPC",HTRA1 (cat) inhibitory activity (decomposition rate of peptide substrate),HTRA1 (cat),no HTRA1 inhibitory activity
"H308_D1G_S16A: H308 derivative, 1Asp substituted by Gly and 16Ser by Ala, SEQ ID NO: 24 (FIG. 36) (protein, peptide H308_D1G_S16A) GPQFGLFSKYRTPNCADHAGMACVALYEPVCGSDMSTYENECVLCMKIREGGHNIKIIRNGPCGG",expression of VEGF mRNA,ARPE-19 cells,confirmed to suppress the expression of VEGF
same,nucleus count in an outer nuclear layer at the cross-section of the retina,"[1]; 0.2 and 1 μg/eye, n=6",suppressed decrease in nucleus count in an outer nuclear layer
same,migration of HUVEC induced in the serum-containing medium,[2],suppressive effect on the migration of HUVEC
"H322AT_D1G_S16A: peptide derivative, amino acid sequence SEQ ID NO: 29 (FIG. 41) (protein, peptide H322AT_D1G_S16A) GPQFGLFSKYRTPNCAQHEGMACYALYEPVCGSDMSTYANECTLCMKIREGGHNIKIIRNGPCGG",nucleus count in an outer nuclear layer at the cross-section of the retina,"[1]; 0.2 and 1 μg/eye, n=6",suppressed decrease in nucleus count in an outer nuclear layer
"H321AT_D1G_S16A: peptide derivative, amino acid sequence SEQ ID NO: 28 (FIG. 40) (protein, peptide H321AT_D1G_S16A) GPQFGLFSKYRTPNCADFDGMACYAFYEPVCGSDMSTYANECTLCMKIREGGHNIKIIRNGPCGG",nucleus count in an outer nuclear layer at the cross-section of the retina,"[1]; 0.2 and 1 μg/eye, n=6",suppressed decrease in nucleus count in an outer nuclear layer
"H308: SPINK2 mutant HTRA1-inhibiting peptide, amino acid sequence SEQ ID NO: 9 (FIG. 21) (protein, peptide H308) DPQFGLFSKYRTPNCSDHAGMACVALYEPVCGSDMSTYENECVLCMKIREGGHNIKIIRNGPCGG","hypertrophy of RPE cells, average area",RPE cells,exhibited a suppressive effect on the hypertrophy of RPE cells
same,"hypertrophy of RPE cells, number of RPE cells having a cell area of 1500 μm^2 or larger",RPE cells,exhibited a suppressive effect on the hypertrophy of RPE cells
same,nucleus count in an outer nuclear layer at the cross-section of the retina,[1]; 5 micro L of 0.04 mg/mL or 0.2 mg/mL intravitreally immediately before light exposure,effect of suppressing decrease in nucleus count in an outer nuclear layer was confirmed

# — patent US20240294610A1, “PEPTIDE FOR TREATING AGE-RELATED MACULAR DEGENERATION” (DAIICHI SANKYO COMPANY, LIMITED, priority 2016, published 2024)
